Experimental findings from EP4471049A1 (Zealand Pharma A/S, priority 2023, dated 2024) are described below.

Read-outs that look alike come from different tables or passages of the source. *1 amine or outer side, *2 acyl side, *3 side chain or, on linkers, in order; H or OH if unused. Bridges are numbered along the chain shown (N, C = ends). Where no end group is shown, it is not given here. [ ]: non-standard residue; d: D form. 4‑Aminomethyl‑phenylacetyl = 4-aminomethyl-phenylacetyl unit, its amine closes the lactam, O=C(Cc1ccc(CN[*:1])cc1)[*:2]; 2Nal = N[C@@H](Cc1ccc2ccccc2c1)C(=O)O; AEF = NCCOc1ccc(C[C@H](N)C(=O)O)cc1; 3Pal = N[C@@H](Cc1cccnc1)C(=O)O; αMeL = CC(C)C[C@](C)(N)C(=O)O; β3hL = CC(C)C[C@H](N)CC(=O)O; 3Amb = NCc1cccc(C(=O)O)c1; Dab = NCC[C@H](N)C(=O)O; Sar = CNCC(=O)O

In assay [1] the target is T1, human IL-23R endogenously expressed on DB cells (human, UniProt Q5VWK5 24-629).
T1 sequence (looked up): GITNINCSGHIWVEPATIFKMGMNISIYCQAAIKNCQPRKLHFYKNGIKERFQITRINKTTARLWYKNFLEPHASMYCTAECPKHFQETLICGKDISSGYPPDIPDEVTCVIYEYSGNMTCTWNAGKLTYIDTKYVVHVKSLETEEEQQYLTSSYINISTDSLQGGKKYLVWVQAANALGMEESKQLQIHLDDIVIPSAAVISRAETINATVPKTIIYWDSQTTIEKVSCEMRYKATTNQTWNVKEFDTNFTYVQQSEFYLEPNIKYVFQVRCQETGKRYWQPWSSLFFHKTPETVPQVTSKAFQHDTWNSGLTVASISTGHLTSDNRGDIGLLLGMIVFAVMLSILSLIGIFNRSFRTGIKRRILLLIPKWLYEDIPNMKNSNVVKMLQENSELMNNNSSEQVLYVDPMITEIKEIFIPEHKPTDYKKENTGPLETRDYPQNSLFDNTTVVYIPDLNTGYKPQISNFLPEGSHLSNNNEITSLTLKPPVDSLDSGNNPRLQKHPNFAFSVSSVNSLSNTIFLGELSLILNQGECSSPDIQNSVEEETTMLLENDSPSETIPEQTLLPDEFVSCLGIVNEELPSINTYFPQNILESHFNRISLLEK
Kind of assay: cell-based or functional assay.

Assay [2] deals with T2, Nluc-IL23R fusion protein (human, UniProt Q5VWK5 22-629).
T2 construct: range 22-629; expressed with a secretion signal in HEK293 cells; used as crude membrane preparation; also called hIL-23R; human IL-23R; not shown: Nanoluc protein from the expression plasmid N1371 (Promega), N-terminal of IL-23R
T2 sequence (looked up): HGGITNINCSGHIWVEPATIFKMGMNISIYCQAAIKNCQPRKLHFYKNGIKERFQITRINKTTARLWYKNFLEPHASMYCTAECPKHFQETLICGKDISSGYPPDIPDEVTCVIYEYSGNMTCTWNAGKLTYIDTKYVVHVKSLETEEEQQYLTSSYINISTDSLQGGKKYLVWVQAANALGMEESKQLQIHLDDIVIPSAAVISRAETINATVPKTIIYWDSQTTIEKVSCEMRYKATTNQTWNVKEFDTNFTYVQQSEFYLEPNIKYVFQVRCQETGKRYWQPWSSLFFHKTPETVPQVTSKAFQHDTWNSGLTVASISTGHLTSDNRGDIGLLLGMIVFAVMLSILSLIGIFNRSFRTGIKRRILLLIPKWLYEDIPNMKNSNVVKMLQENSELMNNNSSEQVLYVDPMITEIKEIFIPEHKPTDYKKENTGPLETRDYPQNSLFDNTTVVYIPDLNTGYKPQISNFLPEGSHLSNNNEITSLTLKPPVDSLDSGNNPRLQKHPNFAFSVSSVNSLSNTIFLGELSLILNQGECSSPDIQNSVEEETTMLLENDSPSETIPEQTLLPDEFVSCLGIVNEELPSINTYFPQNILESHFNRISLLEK
Briefly: BRET competition vs TAMRA-labelled peptide, Nluc-IL23R membranes. For orientation: BRET reads energy transfer from a luciferase to a nearby fluorophore.

Assay [3] deals with T2, Nluc-IL23R fusion protein. Kind of assay: Ki from BRET competition (Cheng-Prusoff), Nluc-IL23R membranes.
In assay [4] the target is T2, Nluc-IL23R fusion protein. Kind of assay: BRET competition vs TAMRA-labelled peptide, Nluc-IL23R membranes. This is another data set of the same source.
In assay [5] the target is T1, human IL-23R endogenously expressed on …. Briefly: cell-based or functional assay. This is another data set of the same source.
The target in assay [6] is T2, Nluc-IL23R fusion protein. Briefly: BRET competition vs TAMRA-labelled peptide, Nluc-IL23R membranes. This is another data set of the same source.

B1: I1 (isomer 3) (peptide)
peptide: H-GCTCWECWWLCS-NH2
modifications: bridge 4-7, 2-11; not fully specified (bridges)
notes: compound from Heinis et al., 2020, synthesised for comparison
In the case of B1, the “hIL-23 (pSTAT3) antagonist % inhibition” value in assay [1] amounted to 83%. Further, in assay [2], the “% displacement (hIL-23R binding)” value was 105% and the IC50 is 130 nM. This molecule returned a Ki in assay [3] of 104 nM. This molecule also showed an IC50 in assay [4] of 130 nM.

B2: Ref 52 (peptide)
peptide: [4‑Aminomethyl‑phenylacetyl]SCWQC[AEF][2Nal][αMeL]ER-NH2
modifications: lactam N-10; bridge 3-6; not fully specified (bridges); printed as [4-Aminomethyl-phenylacetyl](1c)*SC(2a)WQC(2a)[Y(2-aminoethoxy)][2-Nal][2-Me-Leu]E(1c)R-[NH2]
notes: Y = Y(2-aminoethoxy)
Consider B2, for which, in assay [1], the “hIL-23 (pSTAT3) antagonist % inhibition” value was 103% and the “hIL-23 (pSTAT3) antagonist IC50” value was 7.8 nM. In assay [2], the “% displacement (hIL-23R binding)” value came out at 100% and the IC50 is 0.058 nM. The molecule further came in with a Ki in assay [3] of 0.0475 nM. Besides, the IC50 in assay [4] turned out to be 0.058 nM.

B3: Compound C (peptide)
peptide: XQTWQCYWXENG
modifications: [Ac]-[Abu](16i)QTWQC(16i)[Y(2-aminoethoxy)]W[2-Me-Lys]ENG-[NH2]; (16i) [2,7] thioether bridge (cystathionine); N-terminal acetyl, C-terminal amide
notes: Y = Y(2-aminoethoxy)
Consider B3, for which, in assay [1], the “hIL-23 (pSTAT3) antagonist % inhibition” value was found to be 99% and the “hIL-23 (pSTAT3) antagonist IC50” value amounted to 13 nM. For the same molecule, in assay [2], the “% displacement (hIL-23R binding)” value worked out at 102% and the IC50 came to 2.6 nM. This molecule also returned a Ki in assay [3] of 2.11 nM. In addition, in assay [4], the 50% inhibitory concentration (IC50) is 2.6 nM.

B4: Ref 80 (peptide)
peptide: [4‑Aminomethyl‑phenylacetyl]SCWQC[AEF][2Nal][αMeL]E[dR]-NH2
modifications: lactam N-10; bridge 3-6; not fully specified (bridges); printed as [4-Aminomethyl-phenylacetyl](1c)*SC(2a)WQC(2a)[Y(2-aminoethoxy)][2-Nal][2-Me-Leu]E(1c)[{d}R]-[NH2]
notes: Y = Y(2-aminoethoxy), R = D-Arg
For the molecule B4, in assay [1], the “hIL-23 (pSTAT3) antagonist % inhibition” value was 97% and the “hIL-23 (pSTAT3) antagonist IC50” value turned out to be 11 nM. In assay [2], the “% displacement (hIL-23R binding)” value was found to be 98% and the IC50 came out at 0.18 nM. The affinity in assay [3] corresponds to a Ki of 0.15 nM. In assay [4], this molecule came in with an IC50 of 0.18 nM.

B5: Ref 18 (peptide)
peptide: Ac-KSCWQCW[2Nal]LER-NH2
modifications: lactam 1-10; bridge 3-6; not fully specified (bridges); printed as [Ac]-K(1c)SC(2a)WQC(2a)W[2-Nal]LE(1c)R-[NH2]
Turning to B5, in assay [1], the “hIL-23 (pSTAT3) antagonist % inhibition” value is 97% and the “hIL-23 (pSTAT3) antagonist IC50” value stood at 18 nM. Also, in assay [2], the “% displacement (hIL-23R binding)” value was determined as 103% and the IC50 was determined as 3.5 nM. For the same molecule, the concentration for half-maximal inhibition (IC50) in assay [4] was found to be 3.5 nM.

B6: Ref 37 (peptide)
peptide: [3Amb]SCWQCW[2Nal]LER-NH2
modifications: lactam N-10; bridge 3-6; not fully specified (bridges); printed as [(3-Aminomethyl)benzoyl](1c)*SC(2a)WQC(2a)W[2-Nal]LE(1c)R-[NH2]
As to B6, in assay [1], the “hIL-23 (pSTAT3) antagonist % inhibition” value was 89% and the “hIL-23 (pSTAT3) antagonist IC50” value was found to be 45 nM. Moreover, in assay [2], the “% displacement (hIL-23R binding)” value worked out at 103% and the half-inhibitory concentration (IC50) amounted to 12 nM. This molecule registered an IC50 in assay [4] of 12 nM.

B7: Compound 11 (peptide)
peptide: [4‑Aminomethyl‑phenylacetyl]SEWQ[Dab][AEF][2Nal][αMeL]E[Dab][3Pal][β3hL]-NH2
modifications: lactam N-10, 3-6
SMILES: CC(C)C[C@@H](CC(N)=O)NC(=O)[C@H](Cc1cccnc1)NC(=O)[C@H](CCN)NC(=O)[C@@H]1CCC(=O)NCc2ccc(cc2)CC(=O)N[C@@H](CO)C(=O)N[C@H]2CCC(=O)NCC[C@H](NC(=O)[C@H](CCC(N)=O)NC(=O)[C@H](Cc3c[nH]c4ccccc34)NC2=O)C(=O)N[C@@H](Cc2ccc(OCCN)cc2)C(=O)N[C@@H](Cc2ccc3ccccc3c2)C(=O)N[C@@](C)(CC(C)C)C(=O)N1
In the case of B7, in assay [1], the “hIL-23 (pSTAT3) antagonist % inhibition” value amounted to 98% and the “hIL-23 (pSTAT3) antagonist IC50” value came out at 0.68 nM. Further, the “IC50 (pSTAT3)” value in assay [5] is 0.68 nM. In addition, in assay [6], the % displacement (hIL-23R binding) came out at 103% and the IC50 was 0.024 nM.

B8: Compound 9 (peptide)
peptide: [4‑Aminomethyl‑phenylacetyl]SEWQ[Dab][AEF][2Nal][αMeL]E[Dab][3Pal][Sar]-NH2
modifications: lactam N-10, 3-6
SMILES: CC(C)C[C@]1(C)NC(=O)[C@H](Cc2ccc3ccccc3c2)NC(=O)[C@H](Cc2ccc(OCCN)cc2)NC(=O)[C@@H]2CCNC(=O)CC[C@H](NC(=O)[C@H](CO)NC(=O)Cc3ccc(cc3)CNC(=O)CC[C@@H](C(=O)N[C@@H](CCN)C(=O)N[C@@H](Cc3cccnc3)C(=O)N(C)CC(N)=O)NC1=O)C(=O)N[C@@H](Cc1c[nH]c3ccccc13)C(=O)N[C@@H](CCC(N)=O)C(=O)N2
Consider B8, for which, in assay [1], the “hIL-23 (pSTAT3) antagonist % inhibition” value is 97% and the “hIL-23 (pSTAT3) antagonist IC50” value amounted to 0.025 nM. Also, the “IC50 (pSTAT3)” value in assay [5] was found to be 0.025 nM. Also, the % displacement (hIL-23R binding) in assay [6] turned out to be 100%.

B9: Ref 17 (peptide)
peptide: Ac-DESCWQCW[2Nal]LKR-NH2
modifications: lactam 2-11; bridge 4-7; not fully specified (bridges); printed as [Ac]-DE(1c)SC(2a)WQC(2a)W[2-Nal]LK(1c)R-[NH2]
As for B9, the “hIL-23 (pSTAT3) antagonist IC50” value in assay [1] worked out at 370 nM. The IC50 in assay [2] and in assay [4] was 87 nM each time.

B10: Ref 4 (peptide)
peptide: H-DESCWQCWWLKR-NH2
modifications: lactam 2-11; bridge 4-7; not fully specified (bridges)
As to B10, in assay [1], the “hIL-23 (pSTAT3) antagonist % inhibition” value turned out to be 87% and the “hIL-23 (pSTAT3) antagonist IC50” value came to 850 nM. In addition, in assay [2], the “% displacement (hIL-23R binding)” value came to 100% and the IC50 came out at 180 nM. Moreover, the IC50 in assay [4] was determined as 180 nM.

B11: Ref 41 (peptide)
peptide: [3Amb]SCWQC[AEF][2Nal][αMeL]E[dR]-NH2
modifications: lactam N-10; bridge 3-6; not fully specified (bridges); printed as [(3-Aminomethyl)benzoyl](1c)*SC(2a)WQC(2a)[Y(2-aminoethoxy)][2-Nal][2-Me-Leu]E(1c)[{d}R]-[NH2]
notes: as for B4
Consider B11, for which, in assay [1], the “hIL-23 (pSTAT3) antagonist % inhibition” value amounted to 99% and the “hIL-23 (pSTAT3) antagonist IC50” value was 29 nM. In addition, in assay [2], the “% displacement (hIL-23R binding)” value came to 110% and the IC50 amounted to 2.8 nM. Besides, the Ki in assay [3] amounted to 2.31 nM. In assay [4], this molecule returned an IC50 of 2.8 nM.

B12: Ref 81 (peptide)
peptide: [4‑Aminomethyl‑phenylacetyl]SCWQC[AEF][2Nal][αMeL]ES-NH2
modifications: lactam (positions not given here); bridge 3-6; not fully specified (bridges); printed as [4-Aminomethyl-phenylacetyl](1c)*SC(2a)WQC(2a)[Y(2-aminoethoxy)][2-Nal][2-Me-Leu]E(1c)S-[NH2]
notes: Y = Y(2-aminoethoxy)
As to B12, the “hIL-23 (pSTAT3) antagonist % inhibition” value in assay [1] worked out at 95%. Further, the “hIL-23 (pSTAT3) antagonist IC50” value in assay [1] is 21 nM. The IC50 in assay [2] and in assay [4] was 0.39 nM throughout. In assay [3], this molecule came in with an inhibition constant (Ki) of 0.318 nM.

For orientation: IC50 means the concentration that gives 50% inhibition. Lower therefore signals inhibition by little substance. One may read the Ki as a measure of affinity in units of concentration, obtained from inhibition or displacement. Read a low Ki as a stronger hold on the target.
